Laboratory results: US20260176358A1 (JIANGSU HENGRUI PHARMACEUTICALS, published 2026)
Where a chain is given by its changes, count along the chain named.

T1: human CGRP (human, UniProt P06881 83-119)
T1 peptide (looked up): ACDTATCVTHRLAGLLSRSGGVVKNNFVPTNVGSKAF

T2: rat CGRP (rat, UniProt P01256 83-119)
T2 peptide (looked up): T1 peptide (looked up) with A1S, D3N, N25D, K35E

T3: PACAP38 (UniProt P18509 132-169, biotinylated in the ELISAs)
T3 peptide (looked up): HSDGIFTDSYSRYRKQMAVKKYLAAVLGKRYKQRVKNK

B1: C1#-CHI (antibody, human IgG1, kappa, V domains shown)
VH: QVQLQQSGAELVRPGSSVKISCKASGYTFSTSWMNWVKQRPGQGLEWIGQIYPGDGYTNYNGKFRGKATLTADKSSSTAYMQLSSLTSEDSAVYFCAGDYEALWGQGTTLTVSS
VL: DVVMTQTPLSLPVSLGDQASISCRSSQSLVHSNGNTYFHWYLQRPGQSPKLLIYEVSNRFSGVPDRFSGSGSGTDFTLKISRVEAEDLGVYFCSQSTHVPFTFGSGTKLEIKR
notes: chimeric: murine variable regions fused to human constant regions; also called C1#-CH1
B2: C28H2L1 (antibody, human IgG1, kappa, V domains shown)
VH: EVQLVQSGAEVKKPGASVKVSCKASGYTFTDYYMNWVRQAPGQRLEWIGDINPNNVVTTYNQKFKGRATLTVDKSASTAYMELSSLRSEDTAVYYCASIIIVPDYFDYWGQGTTVTVSS
VL: DIQMTQSPSSVSASVGDRVTITCKASQNVGSNVAWYQQKPGKSPKALIYSASYRYSGVPSRFSGSGSGTDFTLTISSLQPEDFATYYCQQYNSYPYTFGGGTKVEIKR
B3: P96#-CHI (antibody, human IgG1, kappa, V domains shown)
VH: EVQLQQSGADLVRPGALVKLSCKASGFNIKDYYMHWVKQRPEQGLEWIGWIDPENGNTLYDPKFQDKASITTDTSSNTAYLQLSSLTSEDTAVYYCVFGVMTTVEGDFDYWGQGTALTVSS
VL: QAVVTQESALTTSPGETVTLTCRSSSGTVTTSNYANWVQEKPDHLFTGLIGGTNNRAPGAPARFSGSLIGDKAALTITGAQTEDEAIYFCALWYSNHWVFGGGTKLTVLR
notes: chimeric: murine variable regions fused to human constant regions; also called P96#-CH1
B4: P96H1L1 (antibody, human IgG1, kappa, V domains shown)
VH: EVQLVQSGAEVKKPGATVKISCKASGFNIKDYYMHWVQQAPGKGLEWMGWIDPENDNTLYDPKFQDRVTITTDTSTNTAYMELSSLRSEDTAVYYCVFGVMTTVEGDFDYWGQGTTVTVSS
VL: ETVVTQEPSLTVSPGGTVTLTCRSSSGTVTTSNYANWVQQKPGQAFRGLIGGTNNRAPGAPARFSGSLLGGKAALTLSGVQPEDEAEYYCALWYSNHWVFGGGTKLTVLR
B5: C1H3L1 (antibody, human IgG1, kappa, V domains shown)
VH: EVQLVQSGAEVKKPGSSVKVSCKASGYTFSTSWMNWVRQAPGQGLEWMGQIYPGDGYTNYNVKFRGRVTITADKSTSTAYMELSSLRSEDTAVYYCAGDYEALWGQGTTVTVSS
VL: B1 VL with V2I, S14T, L15P, D17E, Q18P, R44K, K50Q, L88V, F92Y, S105Q
B6: C9#-CHI (antibody, human IgG1, kappa, V domains shown)
VH: EVQLQQSGPVLVKPGASVKMSCKASGYTFTDYYMNWVKQSLGKSLEWIGVINPYNGRTTYNRKFKGKATLTVDKSSSTAYMELNSLTSEDSAVYYCASLLIRPHYFDYWGQGTTLTVSS
VL: DIVMTQSQKFMATSVGDRVSVTCKASQNVGTNVAWYQQKPGQSPKALIYSASYRYSVVPDRFTGSGSGTDFTLTIRNVQSEDLAEYHCQQYNFYPYTFGAGTKLELKR
notes: chimeric: murine variable regions fused to human constant regions; also called C9#-CH1
B7: C9H8L1 (antibody, human IgG1, kappa, V domains shown)
VH: B2 VH with D50V, N54Y, N55T, V56G, V57R, Q62R, I99L, I100L, V102R, D104H
VL: B2 VL with V11L, S31T, F83V, Y87H, S93F, G100Q, V104L
B8: C21#-CHI (antibody, human IgG1, kappa, V domains shown)
VH: EVQLQQSGPELVKPGASVRISCKASGYTFTDYYMNWVRQSHRKSLEWIGDINPNNGGTNYNQKFKGKATLTVDKSSSTAYMELRSLTSEDSAVYYCASIIIVPNYFDYWGQGTTLTVSS
VL: DIVMTQSQKFMSTSVGDRVSVTCKASQNVDTNVAWFQQRPGQSPKALIYSASYRYSGVPDRFTGSGSGTDFTLTISNVQSEDLADYFCQQYNNYPYTFGGGTKLEIER
notes: chimeric: murine variable regions fused to human constant regions; also called C21#-CH1
B9: C28#-CHI (antibody, human IgG1, kappa, V domains shown)
VH: B8 VH with R19K, K23E, R38K, R42G, G57V, N59T, N104D
VL: B8 VL with Q6H, D30G, T31S, F36Y, Q38E, R39K, D85E, N93S, E107K
notes: chimeric: murine variable regions fused to human constant regions; also called C28#-CH1
B10: HJ-3 (bispecific antibody)
chain 1: not shown
chain 2: DIQMTQSPSSVSASVGDRVTITCRASQDIANYLSWYQQKPGKSPKLLIYGTSNLEVGVPSRFSGSRSGTDFTLTISSLQPEDFATYYCLQDKEFPRTFGGGTKVEIKGGGGSSGAPRFLTRPLAFVVSVGKDATLSSQIVGNPTPQVSWEKDKQPVTAGARFRLAQDGDLYRLKILDLQLSDSGQYVSRARNAIGEAFACLGLQVDAEA
chain 3: EVQLVQSGAEVKKPGSSVKVSCKASGYTFSNYLIEWVRQAPGQGLEWIGVIDPGVGDTNYNENFKGRATLTADKSTSTAYIELSSLRSEDTAVYYCAREDNTGTAFDYWGQGTTVTVSSASTKGPSVFPLAPSSKSTSGGTAALGCLVKDYFPEPVTVSWNSGALTSGVHTFPAVLQSSGLYSLSSVVTVPSSSLGTQTYICNVNHKPSNTKVDKKVEPKSCDKTHTCPPCPAPEAAGGPSVFLFPPKPKDTLMISRTPEVTCVVVDVSHEDPEVKFNWYVDGVEVHNAKTKPREEQYNSTYRVVSVLTVLHQDWLNGKEYKCKVSNKALPAPIEKTISKAKGQPREPQVCTLPPSREEMTKNQVSLSCAVKGFYPSDIAVEWESNGQPENNYKTTPPVLDSDGSFFLVSKLTVDKSRWQQGNVFSCSVMHEALHNHYTQKSLSLSPGKDYKDDDDK
chain 4: SIVMTQTPLSLSVTPGQPASISCKASQSVSSDVTWYLQKPGQSPQLLIYYVSEHYTGVPDRFSGSGYGTDFTLKISRVEAEDVGVYYCQQHHRFPLTFGQGTKLEIKRTVAAPSVFIFPPSDEQLKSGTASVVCLLNNFYPREAKVQWKVDNALQSGNSQESVTEQDSKDSTYSLSSTLTLSKADYEKHKVYACEVTHQGLSSPVTKSFNRGEC
B11: HJ-5 (bispecific antibody)
chain 1: not shown
chain 2: B10 chain 2 with L123K, F125S, T144F, A160V, I194H
chain 3: EVQLVQSGAEVKKPGSSVKVSCKASGYTFSNYLIEWVRQAPGQGLEWIGVIDPGVGDTNYNENFKGRATLTADKSTSTAYIELSSLRSEDTAVYYCAREDNTGTAFDYWGQGTTVTVSSASTKGPSVFPLAPSSKSTSGGTAALGCLVKDYFPEPVTVSWNSGALTSGVHTFPAVLQSSGLYSLSSVVTVPSSSLGTQTYICNVNHKPSNTKVDKKVEPKSCDKTHTCPPCPAPEAAGGPSVFLFPPKPKDTLMISRTPEVTCVVVDVSHEDPEVKFNWYVDGVEVHNAKTKPREEQYNSTYRVVSVLTVLHQDWLNGKEYKCKVSNKALPAPIEKTISKAKGQPREPQVCTLPPSREEMTKNQVSLSCAVKGFYPSDIAVEWESNGQPENNYKTTPPVLDSDGSFFLVSKLTVDKSRWQQGNVFSCSVMHEALHNHYTQKSLSLSPGK
chain 4: B10 chain 4
B12: HJ-6 (bispecific antibody)
chain 1: not shown
chain 2: B10 chain 2 with R121C, L123K, F125S, T144F, A160V, I194H
chain 3: B11 chain 3
chain 4: B10 chain 4
B13: HJ-7 (bispecific antibody)
chain 1: not shown
chain 2: B10 chain 2 with L123K, F125S, S137C, T144F, A160V, S188C, I194H
chain 3: B11 chain 3
chain 4: B10 chain 4
B14: HJ-8 (bispecific antibody)
chain 1: not shown
chain 2: B10 chain 2 with G108R, G109T, G110V, G111A, L123K, F125S, T144F, A160V, I194H
chain 3: B11 chain 3
chain 4: B10 chain 4
B15: HJ-9 (bispecific antibody)
chain 1: not shown
chain 2: B10 chain 2 with G108R, G109T, G110V, G111A, R121C, L123K, F125S, T144F, A160V, I194H
chain 3: B11 chain 3
chain 4: B10 chain 4
B16: HJ-10 (bispecific antibody)
chain 1: not shown
chain 2: DIQMTQSPSSVSASVGDRVTITCRASQDIANYLSWYQQKPGKSPKLLIYGTSNLEVGVPSRFSGSRSGTDFTLTISSLQPEDFATYYCLQDKEFPRTFGGGTKVEIKRTVASSGAPRFLTRPKASVVSVGKDATLSCQIVGNPFPQVSWEKDKQPVTAGVRFRLAQDGDLYRLKILDLQLSDSGQYVCRARNAHGEAFACLGLQVDAEA
chain 3: B11 chain 3
chain 4: B10 chain 4
B17: HJ-11 (bispecific antibody)
chain 1: not shown
chain 2: B16 chain 2 with A115C
chain 3: B11 chain 3
chain 4: B10 chain 4

Tests used:
human CGRP = target: T1, human CGRP; test: ELISA, coated CGRP
Description: (§1) In this test example, the abilities of the chimeric antibodies and humanized antibodies of C1 #, C9 #, C21 #, and C28 #to bind to human CGRP and rat CGRP were assessed using ELISAs. Plates were coated with […] human CGRP and rat CGRP, respectively, and blocked, and the antibodies, serially diluted, were then added. The plates were incubated for 1 h and washed, and a horseradish peroxidase-labeled anti-human Fc secondary antibody was then added. After incubation, color development was performed. […] The plates were incubated for 1 h and washed, and the antibodies, serially diluted, were then added. The plates were incubated for 1 h and washed, and a horseradish peroxidase-labeled streptavidin secondary antibody was then added. After incubation, color development was performed.

rat CGRP = target: T2, rat CGRP; test: ELISA, coated CGRP
Description: as §1

CGRP = test: cell-based or functional assay
PACAP38 [1] = target: T3, PACAP38; test: cell-based or functional assay
PACAP38 [2] = target: T3, PACAP38; test: competition ELISA, biotinylated PACAP38 to coated PAC1-Fc
Description: (§2) The plates were incubated for 1 h and washed, and a horseradish peroxidase-labeled streptavidin secondary antibody was then added. After incubation, color development was performed.

PACAP38 [3] = target: T3, PACAP38; test: competition ELISA, biotinylated PACAP38 to coated VPAC1-Fc
Description: as §2

PACAP38 [4] = target: T3, PACAP38; test: competition ELISA, biotinylated PACAP38 to coated VPAC2-Fc
Description: as §2

hIL5 = hIL5 (human, UniProt P05113 20-134); test: method of Test Example 4 of WO2021139758
hTSLP = hTSLP (human, UniProt Q969D9 29-159); test: method of Test Example 4 of WO2021139758

| Binder | EC50 (human CGRP) [nM] | EC50 (rat CGRP) [nM] | IC50, inhibition of cAMP production in SK-N-MC cells (CGRP) [nM] | EC50 (hIL5) [nM] | EC50 (hTSLP) [nM] | further results |
| --- | --- | --- | --- | --- | --- | --- |
| B1 | 1.36 | 1.81 | 7.96 |  |  |  |
| B2 | 1.33 | 4.04 | 2.55 |  |  |  |
| B3 |  |  |  |  |  | IC50, inhibition of cAMP production in SH-SY5Y cells (PACAP38 [1]): 8.26 nM; IC50 (PACAP38 [2]): 0.83 nM; IC50 (PACAP38 [3]): 0.53 nM; IC50 (PACAP38 [4]): 0.68 nM |
| B4 |  |  |  |  |  | IC50, inhibition of cAMP production in SH-SY5Y cells (PACAP38 [1]): 1.79 nM; IC50 (PACAP38 [2]): 0.76 nM; IC50 (PACAP38 [3]): 0.53 nM; IC50 (PACAP38 [4]): 0.61 nM |
| B5 | 1.89 | 1.95 | 9.77 |  |  |  |
| B6 | 1.58 | 3.11 | 21 |  |  |  |
| B7 | 1.03 | 2.8 | 12.2 |  |  |  |
| B8 | 3.79 | 10.1 | 1.28 |  |  |  |
| B9 | 1.29 | 7.4 | 1.21 |  |  |  |
| B10 |  |  |  | 17.4 | 3.23 |  |
| B11 |  |  |  | 16 | 2.64 |  |
| B12 |  |  |  | 37 | 2.88 |  |
| B13 |  |  |  | 17.7 | 2.18 |  |
| B14 |  |  |  | 18.7 | 3.33 |  |
| B15 |  |  |  | 10.9 | 3.18 |  |
| B16 |  |  |  | 20.8 | 3.17 |  |
| B17 |  |  |  | 9.46 | 3 |  |
